Target: T1, C1 esterase (UniProt P09871 16-688, limits assumed)
T1 sequence (looked up): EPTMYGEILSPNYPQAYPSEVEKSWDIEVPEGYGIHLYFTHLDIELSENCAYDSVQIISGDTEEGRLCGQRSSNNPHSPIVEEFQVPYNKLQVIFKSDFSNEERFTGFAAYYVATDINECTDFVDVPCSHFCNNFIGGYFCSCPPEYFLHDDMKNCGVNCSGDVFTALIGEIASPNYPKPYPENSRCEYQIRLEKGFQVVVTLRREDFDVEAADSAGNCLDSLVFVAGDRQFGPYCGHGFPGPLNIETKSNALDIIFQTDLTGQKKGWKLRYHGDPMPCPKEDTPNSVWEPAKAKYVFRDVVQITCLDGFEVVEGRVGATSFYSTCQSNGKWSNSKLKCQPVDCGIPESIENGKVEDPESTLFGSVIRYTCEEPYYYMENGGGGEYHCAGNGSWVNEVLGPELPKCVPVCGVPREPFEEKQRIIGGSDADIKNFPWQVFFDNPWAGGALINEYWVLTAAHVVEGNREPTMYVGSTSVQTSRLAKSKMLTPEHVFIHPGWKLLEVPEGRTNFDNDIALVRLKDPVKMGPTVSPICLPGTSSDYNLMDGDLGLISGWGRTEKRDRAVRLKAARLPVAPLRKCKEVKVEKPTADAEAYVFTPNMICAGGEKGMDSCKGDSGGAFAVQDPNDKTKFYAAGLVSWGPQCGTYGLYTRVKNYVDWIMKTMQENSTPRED
Assay: cell-based or functional assay

B1: recombinant human C1 esterase inhibitor (rhC1-INH) (other)
chain: NPNATSSSSQDPESLQDRGEGKVATTVISKMLFVEPILEVSSLPTTNSTTNSATKITANTTDEPTTQPTTEPTTQPTIQPTQPTTQLPTDSPTQPTTGSFCPGPVTLCSDLESHSTEAVLGDALVDFSLKLYHAFSAMKKVETNMAFSPFSIASLLTQVLLGAGQNTKTNLESILSYPKDFTCVHQALKGFTTKGVTSVSQIFHSPDLAIRDTFVNASRTLYSSSPRVLSNNSDANLELINTWVAKNTNNKISRLLDSLPSDTRLVLLNAIYLSAKWKTTFDPKKTRMEPFHFKNSVIKVPMMNSKKYPVAHFIDQTLKAKVGQLQLSHNLSLVILVPQNLKHRLEDMEQALSPSVFKAIMEKLEMSKFQPTLLTLPRIKVTTSQDMLSIMEKLEFFDFSYDLNLCGLTEDPDLQVSAMQHQTVLELTETGVEAAAASAISVARTLLVFEVQQPFLFVLWDQQHKFPVFMGRVYDPRA
modifications: heavily N- and O-glycosylated, sialylated (CHO-expressed)
- potency relative to the initial development reference standard: 121%

From patent publication US20180334493A1 (Takeda / Millennium, published 2018)
